From the supplement of paper PMC3353916 come the findings set out here.

In the series the test system is Sindbis virus TE/5'2J-GFP. The series is described as follows: percent infected (GFP+ in RFP+ ISG-expressing cells); higher = more infection (less antiviral activity). The procedure:
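Confirmatory testing of 87 ISGs. Triplicate wells of BHK/HA-Zeo (control) or BHK/NZAP-Zeo (ZAP) cells were transduced with lentiviruses co-expressing a human ISG plus TagRFP, then infected 48 h later with SINV TE/5'2J-GFP (moi 5). The % GFP+ cells among RFP+ cells was measured by flow cytometry at 8 h post infection. Fluc lentivirus served as control. Three independent experiments.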

[1] abbreviates: experiment: confirmatory screen 1, BHK/HA-Zeo (control).
The mark [2] stands for this setting: experiment: confirmatory screen 1, BHK/NZAP-Zeo (ZAP).
Setting [3] is: experiment: confirmatory screen 2, BHK/HA-Zeo (control).
Setting [4] is: experiment: confirmatory screen 2, BHK/NZAP-Zeo (ZAP).
[5] abbreviates: experiment: confirmatory screen 3, BHK/HA-Zeo (control).
Where [6] appears, read: experiment: confirmatory screen 3, BHK/NZAP-Zeo (ZAP).

± gives the standard deviation of the averaged measurements.
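Also: Interferon-defective BHK-21 derivatives, ZAP line overexpressing the rat ZAP N-terminal zinc finger domain fused to Zeocin resistance, GFP scored within live singlet TagRFP+ cells.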

On to “MEKLLCFLVLTSLSHAFGQTDMSRKAFVFPKESDTSYVSLKAPLTKPLKAFTVCLHFYTELSSTRGYSIFSYATKRQDNEILIFWSKDIGYSFTVGGSEILFEVPEVTVAPVHICTSWESASGIVEFWVDGKPRVRKSLKKGYTVGAEASIILGQEQDSFGGNFEGSQSLVGDIGNVNMWDFVLSPDEINTIYLGGPFSPNVLNWRALKYEVQGEVFTKPQLWP [CRP]”, for which the percent infected was 94.7 ± 1.9% under setting [1]; 71.6 ± 4% under setting [2]; 95.07 ± 0.27% under setting [3]; 94.33 ± 0.72% under setting [4]; 89.4 ± 1.5% under setting [5]; 92.68 ± 0.15% under setting [6].

On to “MELRSYQWEVIMPALEGKNIIIWLPTGAGKTRAAAYVAKRHLETVDGAKVVVLVNRVHLVTQHGEEFRRMLDGRWTVTTLSGDMGPRAGFGHLARCHDLLICTAELLQMALTSPEEEEHVELTVFSLIVVDECHHTHKDTVYNVIMSQYLELKLQRAQPLPQVLGLTASPGTGGASKLDGAINHVLQLCANLDTWCIMSPQNCCPQLQEHSQQPCKQYNLCHRRSQDPFGDLLKKLMDQIHDHLEMPELSRKFGTQMYEQQVVKLSEAAALAGLQEQRVYALHLRRYNDALLIHDTVRAVDALAALQDFYHREHVTKTQILCAERRLLALFDDRKNELAHLATHGPENPKLEMLEKILQRQFSSSNSPRGIIFTRTRQSAHSLLLWLQQQQGLQTVDIRAQLLIGAGNSSQSTHMTQRDQQEVIQKFQDGTLNLLVATSVAEEGLDIPHCNVVVRYGLLTNEISMVQARGRARADQSVYAFVATEGSRELKRELINEALETLMEQAVAAVQKMDQAEYQAKIRDLQQAALTKRAAQAAQRENQRQQFPVEHVQLLCINCMVAVGHGSDLRKVEGTHHVNVNPNFSNYYNVSRDPVVINKVFKDWKPGGVISCRNCGEVWGLQMIYKSVKLPVLKVRSMLLETPQGRIQAKKWSRVPFSVPDFDFLQHCAENLSDLSLD [DHX58]”, for which the percent infected was 95 ± 1.5% under setting [1]; 75.7 ± 2.1% under setting [2]; 95.81 ± 0.69% under setting [3]; 95.7 ± 0.2% under setting [4]; 94.51 ± 0.49% under setting [5]; 94.61 ± 0.18% under setting [6].

The sequence “MEQHFLGCVKRAWDSAEVAPEPQPPPIVSSEDRGPWPLPLYPVLGEYSLDSCDLGLLSSPCWRLPGVYWQNGLSPGVQSTLEPSTAKPTEFSWPGTQKQQEAPVEEVGQAEEPDRLRLQQLPWSSPLHPWDRQQDTEVCDSGCLLERRHPPALQPWRHLPGFSDCLEWILRVGFAAFSVLWACCSRICGAKQP [C5orf39]” gave a percent infected under setting [1] of 76.7 ± 4.1%; a percent infected under setting [2] of 9.13 ± 2.2%; a percent infected under setting [3] of 93.67 ± 0.59%; a percent infected under setting [4] of 89.88 ± 0.14%; a percent infected under setting [5] of 75.4 ± 1.5%; a percent infected under setting [6] of 50.1 ± 3%.

Sequence “MERISAFFSSIWDTILTKHQEGIYNTICLGVLLGLPLLVIITLLFICCHCCWSPPGKRGQQPEKNKKKKKKKKKKDEEDLWISAQPKLLQMEKRPSLPV [KIAA0040]” gave a percent infected under setting [1] of 93.9 ± 2.6%; a percent infected under setting [2] of 62.7 ± 0.84%; a percent infected under setting [3] of 96.75 ± 0.12%; a percent infected under setting [4] of 95.133 ± 0.042%; a percent infected under setting [5] of 87.2 ± 1.7%; a percent infected under setting [6] of 87.8 ± 1.6%.

For “MEVTTRLTWNDENHLRKLLGNVSLSLLYKSSVHGGSIEDMVERCSRQGCTITMAYIDYNMIVAFMLGNYINLHESSTEPNDSLWFSLQKKNDTTEIETLLLNTAPKIIDEQLVCRLSKTDIFIICRDNKIYLDKMITRNLKLRFYGHRQYLECEVFRVEGIKDNLDDIKRIIKAREHRNRLLADIRDYRPYADLVSEIRILLVGPVGSGKSSFFNSVKSIFHGHVTGQAVVGSDITSITERYRIYSVKDGKNGKSLPFMLCDTMGLDGAEGAGLCMDDIPHILKGCMPDRYQFNSRKPITPEHSTFITSPSLKDRIHCVAYVLDINSIDNLYSKMLAKVKQVHKEVLNCGIAYVALLTKVDDCSEVLQDNFLNMSRSMTSQSRVMNVHKMLGIPISNILMVGNYASDLELDPMKDILILSALRQMLRAADDFLEDLPLEETGAIERALQPCI [IFI44L]”, the percent infected runs as follows: under setting [1], 94.86 ± 0.39%; under setting [2], 67.5 ± 2.4%; under setting [3], 96.87 ± 0.21%; under setting [4], 94.83 ± 0.34%; under setting [5], 83.6 ± 1.6%; under setting [6], 85.31 ± 0.85%.

Take “MFAKGKGSAVPSDGQAREKLALYVYEYLLHVGAQKSAQTFLSEIRWEKNITLGEPPGFLHSWWCVFWDLYCAAPERRDTCEHSSEAKAFHDYSAAAAPSPVLGNIPPNDGMPGGPIPPGFFQGPPGSQPSPHAQPPPHNPSSMMGPHSQPFMSPRYAGGPRPPIRMGNQPPGGVPGTQPLLPNSMDPTRQQGHPNMGGSMQRMNPPRGMGPMGPGPQNYGSGMRPPPNSLGPAMPGINMGPGAGRPWPNPNSANSIPYSSSSPGTYVGPPGGGGPPGTPIMPSPADSTNSSDNIYTMINPVPPGGSRSNFPMGPGSDGPMGGMGGMEPHHMNGSLGSGDIDGLPKNSPNNISGISNPPGTPRDDGELGGNFLHSFQNDNYSPSMTMSV [SSBP3]”: the percent infected reads like this: under setting [1], 63.1 ± 3.4%; under setting [2], 3.95 ± 1.2%; under setting [3], 94.42 ± 0.81%; under setting [4], 95.08 ± 0.28%; under setting [5], 83.27 ± 0.48%; under setting [6], 54.1 ± 14%.

Consider “MGAQLCFEANAKAPREALRFHAEAKGAQVRLDTRGCIAHRRTTFHDGIVFSQRPVRLGERVALRVLREESGWCGGLRVGFTRLDPACVSVPSLPPFLCPDLEEQSPTWAAVLPEGCALTGDLVRFWVDRRGCLFAKVNAGCRLLLREGVPVGAPLWAVMDVYGTTKAIELLDPTASRLPTPMPWDLSNKAVPEPKATPGEECAICFYHAANTRLVPCGHTYFCRYCAWRVFSDTAKCPVCRWQIEAVAPAQGPPALRVEEGS [LINCR]”, for which the percent infected is, setting by setting: under setting [1], 97.12 ± 0.12%; under setting [2], 85 ± 1.6%; under setting [3], 94.5 ± 0.3%; under setting [4], 94.39 ± 0.54%; under setting [5], 91.97 ± 0.65%; under setting [6], 93.27 ± 0.19%.

“MGERTLHAAVPTPGYPESESIMMAPICLVENQEEQLTVNSKALEILDKISQPVVVVAIVGLYRTGKSYLMNRLAGKRNGFPLGSTVQSETKGIWMWCVPHLSKPNHTLVLLDTEGLGDVEKSNPKNDSWIFALAVLLSSSFVYNSVSTINHQALEQLHYVTELAELIRAKSCPRPDEAEDSSEFASFFPDFIWTVRDFTLELKLDGNPITEDEYLENALKLIPGKNPKIQNSNMPRECIRHFFRKRKCFVFDRPTNDKQYLNHMDEVPEENLERHFLMQSDNFCSYIFTHAKTKTLREGIIVTGKRLGTLVVTYVDAINSGAVPCLENAVTALAQLENPAAVQRAADHYSQQMAQQLRLPTDTLQELLDVHAACEREAIAVFMEHSFKDENHEFQKKLVDTIEKKKGDFVLQNEEASAKYCQAELKRLSEHLTESILRGIFSVPGGHNLYLEEKKQVEWDYKLVPRKGVKANEVLQNFLQSQVVVEESILQSDKALTAGEKAIAAERAMKEAAEKEQELLREKQKEQQQMMEAQERSFQEYMAQMEKKLEEERENLLREHERLLKHKLKVQEEMLKEEFQKKSEQLNKEINQLKEKIESTKNEQLRLLKILDMASNIMIVTLPGASKLLGVGTKYLGSRI [GBP4]”: the percent infected runs as follows: under setting [1], 95 ± 2.1%; under setting [2], 63 ± 6%; under setting [3], 95.8 ± 0.54%; under setting [4], 95.49 ± 0.44%; under setting [5], 94.22 ± 0.7%; under setting [6], 94.93 ± 0.31%.

For “MGILYSEPICQAAYQNDFGQVWRWVKEDSSYANVQDGFNGDTPLICACRRGHVRIVSFLLRRNANVNLKNQKERTCLHYAVKKKFTFIDYLLIILLMPVLLIGYFLMVSKTKQNEALVRMLLDAGVEVNATDCYGCTALHYACEMKNQSLIPLLLEARADPTIKNKHGESSLDIARRLKFSQIELMLRKAL [ANKRD22]”, the percent infected reads like this: under setting [1], 96.94 ± 0.72%; under setting [2], 78.5 ± 1.2%; under setting [3], 96.41 ± 0.47%; under setting [4], 95.57 ± 0.16%; under setting [5], 93.15 ± 0.2%; under setting [6], 93.16 ± 0.36%.

Consider “MHLCGGNGLLTQTDPKEQQRQLKKQKNRAAAQRSRQKHTDKADALHQQHESLEKDNLALRKEIQSLQAELAWWSRTLHVHERLCPMDCASCSAPGLLGCWDQAEGLLGPGPQGQHGCREQLELFQTPGSCYPAQPLSPGPQPHDSPSLLQCPLPSLSLGPAVVAEPPVQLSPSPLLFASHTGSSLQGSSSKLSALQPSLTAQTAPPQPLELEHPTRGKLGSSPDNPSSALGLARLQSREHKPALSAATWQGLVVDPSPHPLLAFPLLSSAQVHF [BATF2]”, for which the percent infected came to 90.1 ± 2.7% under setting [1]; 63.14 ± 0.42% under setting [2]; 95.85 ± 0.33% under setting [3]; 94.92 ± 0.24% under setting [4]; 93.14 ± 0.36% under setting [5]; 91.04 ± 0.55% under setting [6].

For the sequence “MHQSLTQQRSSDMSLPDSMGAFNRRKRNSIYVTVTLLIVSVLILTVGLAATTRTQNVTVGGYYPGVILGFGSFLGIIGSNLIENKRQMLVASIVFISFGVIAAFCCAIVDGVFAARHIDLKPLYANRCHYVPKTSQKEAEEVISSSTKNSPSTRVMRNLTQAAREVNCPHLSREFCTPRIRGNTCFCCDLYNCGNRVEITGGYYEYIDVSSCQDIIHLYHLLWSATILNIVGLFLGIITAAVLGGFKDMNPTLPALNCSVENTHPTVSYYAHPQVASYNTYYHSPPHLPPYSAYDFQHSGVFPSSPPSGLSDEPQSASPSPSYMWSSSAPPRYSPPYYPPFEKPPPYSP [FAM70A]”, the percent infected is, setting by setting: under setting [1], 97.01 ± 0.45%; under setting [2], 75.9 ± 2.9%; under setting [3], 96.07 ± 0.48%; under setting [4], 95.55 ± 0.12%; under setting [5], 94.9 ± 0.5%; under setting [6], 94.05 ± 0.37%.

As for “MIAAQAKLVYQLNKYYTERCQARKAAIAKTIREVCKVVSDVLKEVEVQEPRFISSLSEIDARYEGLEVISPTEFEVVLYLNQMGVFNFVDDGSLPGCAVLKLSDGRKRSMSLWVEFITASGYLSARKIRSRFQTLVAQAVDKCSYRDVVKMIADTSEVKLRIRERYVVQITPAFKCTGIWPRSAAQWPMPHIPWPGPNRVAEVKAEGFNLLSKECYSLTGKQSSAESDAWVLQFGEAENRLLMGGCRNKCLSVLKTLRDRHLELPGQPLNNYHMKTLLLYECEKHPRETDWDESCLGDRLNGILLQLISCLQCRRCPHYFLPNLDLFQGKPHSALESAAKQTWRLAREILTNPKSLDKL [MAB21L2]”, the percent infected came out at 77.4 ± 7.3% under setting [1]; 48.7 ± 1.9% under setting [2]; 93.37 ± 0.82% under setting [3]; 93.8 ± 0.28% under setting [4]; 85.5 ± 3.3% under setting [5]; 86.9 ± 0.91% under setting [6].
